From patent publication US20040261142A1 come the findings set out here.

For the experiment, the target named is mutant pp60c-Src tyrosine kinase (SRC 531 mutant, truncated c-Src) (human) (UniProt P12931). As to the kind of experiment: cell-based or functional assay.

For the substance “peptide Ala-Glu-Glu-Glu-Ile-Tyr-Gly-Glu-Phe-Glu-Ala-Lys-Lys-Lys-Lys”, the K50% (competitive inhibition of enolase phosphorylation) is 5 µM; the Km (kinase reaction, 32P incorporation into peptide, phosphocellulose paper) turned out to be 2 µM; the Vmax (kinase reaction, 32P incorporation into peptide, phosphocellulose paper) stood at 0.9 µM/mg/min.
